Results as given in publication PMC2855332.

Biological target: ovine PrP (VRQ allele), PrP^Sc aggregates from brains of prion-infected tg338 mice (sheep) (UniProt P23907)

ovine PrP (VRQ allele), PrP^Sc aggregates from brains of prion-infected tg338 mice (from UniProt P23907 25-233) (natural protein)
stoichiometry N: 12 to 30 PrP monomers
